Results on 5 molecules are retold here after patent US20220298218A1 (ANTAG THERAPEUTICS, published 2022).

Test [1] addresses T1, human GIP receptor (human, UniProt P48546 22-466).
T1 sequence (looked up): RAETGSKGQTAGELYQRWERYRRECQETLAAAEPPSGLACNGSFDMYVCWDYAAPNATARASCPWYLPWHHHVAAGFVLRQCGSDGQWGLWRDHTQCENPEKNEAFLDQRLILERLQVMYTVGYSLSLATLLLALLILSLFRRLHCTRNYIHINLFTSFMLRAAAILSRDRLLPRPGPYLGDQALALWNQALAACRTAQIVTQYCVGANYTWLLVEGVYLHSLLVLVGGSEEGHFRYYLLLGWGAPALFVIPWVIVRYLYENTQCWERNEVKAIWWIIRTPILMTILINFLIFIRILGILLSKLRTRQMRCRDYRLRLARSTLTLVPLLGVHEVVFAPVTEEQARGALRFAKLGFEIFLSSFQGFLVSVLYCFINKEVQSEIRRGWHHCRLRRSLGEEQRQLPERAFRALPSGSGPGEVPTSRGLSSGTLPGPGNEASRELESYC
As to the kind of experiment: cell-based or functional assay.

The target in test [2] is T1, human GIP receptor. As to the kind of experiment: cell-based or functional assay. The source holds these as a separate data set.

Like-named read-outs stand apart in the source and are kept apart here. *1 amine or outer side, *2 acyl side, *3 side chain or, on linkers, in order; H or OH if unused. Where no end group is shown, it is not given here. Side-chain parts run from the residue outwards. The star is where a group is joined. C18 diacid = O=C(O)CCCCCCCCCCCCCCCCC(=O)*; C16 diacid = O=C(O)CCCCCCCCCCCCCCC(=O)*; γGlu = O=C(O)[C@H](CCC(=O)[*:2])N[*:1]; AEEA = NCCOCCOCC(=O)O

B1: AT431 (peptide)
peptide: EGTFISDYSIAMDKIK([AEEA-AEEA-γGlu-C16 diacid])QQDFVNWLLAQKGPSSGAPPPS-OH
modifications: N-terminus assumed
SMILES: CC[C@H](C)[C@H](NC(=O)[C@H](CO)NC(=O)[C@H](Cc1ccc(O)cc1)NC(=O)[C@H](CC(=O)O)NC(=O)[C@H](CO)NC(=O)[C@@H](NC(=O)[C@H](Cc1ccccc1)NC(=O)[C@@H](NC(=O)CNC(=O)[C@@H](N)CCC(=O)O)[C@@H](C)O)[C@@H](C)CC)C(=O)N[C@@H](C)C(=O)N[C@@H](CCSC)C(=O)N[C@@H](CC(=O)O)C(=O)N[C@@H](CCCCN)C(=O)N[C@H](C(=O)N[C@@H](CCCCNC(=O)COCCOCCNC(=O)COCCOCCNC(=O)CC[C@H](NC(=O)CCCCCCCCCCCCCCC(=O)O)C(=O)O)C(=O)N[C@@H](CCC(N)=O)C(=O)N[C@@H](CCC(N)=O)C(=O)N[C@@H](CC(=O)O)C(=O)N[C@@H](Cc1ccccc1)C(=O)N[C@H](C(=O)N[C@@H](CC(N)=O)C(=O)N[C@@H](Cc1c[nH]c2ccccc12)C(=O)N[C@@H](CC(C)C)C(=O)N[C@@H](CC(C)C)C(=O)N[C@@H](C)C(=O)N[C@@H](CCC(N)=O)C(=O)N[C@@H](CCCCN)C(=O)NCC(=O)N1CCC[C@H]1C(=O)N[C@@H](CO)C(=O)N[C@@H](CO)C(=O)NCC(=O)N[C@@H](C)C(=O)N1CCC[C@H]1C(=O)N1CCC[C@H]1C(=O)N1CCC[C@H]1C(=O)N[C@@H](CO)C(=O)O)C(C)C)[C@@H](C)CC
Regarding B1, in the test with human GIP receptor [1], the “cAMP agonism % Emax” value came out at 0%, the “cAMP antagonism” value was determined as 34.2 nM, the “cAMP antagonism % inhib” value came to 77% and the “cAMP antagonism pIC50” value was 7.5. Further, in the test with human GIP receptor [2], the “cAMP antagonism” value was determined as 7 nM, the “cAMP antagonism % inhib” value came to 75% and the cAMP antagonism log is -8.1 log M.

B2: AT423 (peptide)
peptide: SGTFISDYSIAMDRIK([AEEA-AEEA-γGlu-C16 diacid])QQDFVNWLLAQRGRRNDW-OH
modifications: N-terminus assumed
SMILES: CC[C@H](C)[C@H](NC(=O)[C@H](CO)NC(=O)[C@H](Cc1ccc(O)cc1)NC(=O)[C@H](CC(=O)O)NC(=O)[C@H](CO)NC(=O)[C@@H](NC(=O)[C@H](Cc1ccccc1)NC(=O)[C@@H](NC(=O)CNC(=O)[C@@H](N)CO)[C@@H](C)O)[C@@H](C)CC)C(=O)N[C@@H](C)C(=O)N[C@@H](CCSC)C(=O)N[C@@H](CC(=O)O)C(=O)N[C@@H](CCCNC(=N)N)C(=O)N[C@H](C(=O)N[C@@H](CCCCNC(=O)COCCOCCNC(=O)COCCOCCNC(=O)CC[C@H](NC(=O)CCCCCCCCCCCCCCC(=O)O)C(=O)O)C(=O)N[C@@H](CCC(N)=O)C(=O)N[C@@H](CCC(N)=O)C(=O)N[C@@H](CC(=O)O)C(=O)N[C@@H](Cc1ccccc1)C(=O)N[C@H](C(=O)N[C@@H](CC(N)=O)C(=O)N[C@@H](Cc1c[nH]c2ccccc12)C(=O)N[C@@H](CC(C)C)C(=O)N[C@@H](CC(C)C)C(=O)N[C@@H](C)C(=O)N[C@@H](CCC(N)=O)C(=O)N[C@@H](CCCNC(=N)N)C(=O)NCC(=O)N[C@@H](CCCNC(=N)N)C(=O)N[C@@H](CCCNC(=N)N)C(=O)N[C@@H](CC(N)=O)C(=O)N[C@@H](CC(=O)O)C(=O)N[C@@H](Cc1c[nH]c2ccccc12)C(=O)O)C(C)C)[C@@H](C)CC
On to B2, for which, in the test with human GIP receptor [1], the “cAMP agonism % Emax” value was found to be 0%, the “cAMP antagonism” value turned out to be 79.4 nM, the “cAMP antagonism % inhib” value was determined as 71% and the “cAMP antagonism pIC50” value is 7.1. Moreover, in the test with human GIP receptor [2], the “cAMP antagonism” value stood at 6 nM, the “cAMP antagonism % inhib” value worked out at 95% and the cAMP antagonism log is -8.2 log M.

B3: AT433 (peptide)
peptide: EGTFISDYSIAMDKIK([AEEA-AEEA-γGlu-C18 diacid])QQDFVNWLLAQKGPSSGAPPPS
On to B3, for which, in the test with human GIP receptor [1], the “cAMP agonism % Emax” value is 0%, the “cAMP antagonism” value stood at 7.94 nM, the “cAMP antagonism % inhib” value was 89% and the “cAMP antagonism pIC50” value was found to be 8.1. In addition, in the test with human GIP receptor [2], the “cAMP antagonism” value was 62 nM, the “cAMP antagonism % inhib” value worked out at 100% and the cAMP antagonism log is -7.2 log M.

B4: AT475 (peptide)
peptide: FISDYSIAMDKIK(C16 diacid)QQDFVNWLLAQKGPSSGAPPPS-OH
modifications: N-terminus assumed
SMILES: CC[C@H](C)[C@H](NC(=O)[C@H](CO)NC(=O)[C@H](Cc1ccc(O)cc1)NC(=O)[C@H](CC(=O)O)NC(=O)[C@H](CO)NC(=O)[C@@H](NC(=O)[C@@H](N)Cc1ccccc1)[C@@H](C)CC)C(=O)N[C@@H](C)C(=O)N[C@@H](CCSC)C(=O)N[C@@H](CC(=O)O)C(=O)N[C@@H](CCCCN)C(=O)N[C@H](C(=O)N[C@@H](CCCCNC(=O)CCCCCCCCCCCCCCC(=O)O)C(=O)N[C@@H](CCC(N)=O)C(=O)N[C@@H](CCC(N)=O)C(=O)N[C@@H](CC(=O)O)C(=O)N[C@@H](Cc1ccccc1)C(=O)N[C@H](C(=O)N[C@@H](CC(N)=O)C(=O)N[C@@H](Cc1c[nH]c2ccccc12)C(=O)N[C@@H](CC(C)C)C(=O)N[C@@H](CC(C)C)C(=O)N[C@@H](C)C(=O)N[C@@H](CCC(N)=O)C(=O)N[C@@H](CCCCN)C(=O)NCC(=O)N1CCC[C@H]1C(=O)N[C@@H](CO)C(=O)N[C@@H](CO)C(=O)NCC(=O)N[C@@H](C)C(=O)N1CCC[C@H]1C(=O)N1CCC[C@H]1C(=O)N1CCC[C@H]1C(=O)N[C@@H](CO)C(=O)O)C(C)C)[C@@H](C)CC
With B4, in the test with human GIP receptor [1], the “cAMP agonism % Emax” value is 0%, the “cAMP antagonism” value worked out at 7.9 nM, the “cAMP antagonism % inhib” value was determined as 96% and the “cAMP antagonism pIC50” value stood at 8.1. Further, in the test with human GIP receptor [2], the “cAMP antagonism” value was found to be 4 nM, the “cAMP antagonism % inhib” value turned out to be 100% and the cAMP antagonism log is -8.4 log M.

B5: AT422 (peptide)
peptide: SGTFISDYSIAMDKIK([AEEA-AEEA-AEEA-γGlu-C18 diacid])QQDFVNWLLAQKGKKNDW-OH
modifications: N-terminus assumed
SMILES: CC[C@H](C)[C@H](NC(=O)[C@H](CO)NC(=O)[C@H](Cc1ccc(O)cc1)NC(=O)[C@H](CC(=O)O)NC(=O)[C@H](CO)NC(=O)[C@@H](NC(=O)[C@H](Cc1ccccc1)NC(=O)[C@@H](NC(=O)CNC(=O)[C@@H](N)CO)[C@@H](C)O)[C@@H](C)CC)C(=O)N[C@@H](C)C(=O)N[C@@H](CCSC)C(=O)N[C@@H](CC(=O)O)C(=O)N[C@@H](CCCCN)C(=O)N[C@H](C(=O)N[C@@H](CCCCNC(=O)COCCOCCNC(=O)COCCOCCNC(=O)COCCOCCNC(=O)CC[C@H](NC(=O)CCCCCCCCCCCCCCCCC(=O)O)C(=O)O)C(=O)N[C@@H](CCC(N)=O)C(=O)N[C@@H](CCC(N)=O)C(=O)N[C@@H](CC(=O)O)C(=O)N[C@@H](Cc1ccccc1)C(=O)N[C@H](C(=O)N[C@@H](CC(N)=O)C(=O)N[C@@H](Cc1c[nH]c2ccccc12)C(=O)N[C@@H](CC(C)C)C(=O)N[C@@H](CC(C)C)C(=O)N[C@@H](C)C(=O)N[C@@H](CCC(N)=O)C(=O)N[C@@H](CCCCN)C(=O)NCC(=O)N[C@@H](CCCCN)C(=O)N[C@@H](CCCCN)C(=O)N[C@@H](CC(N)=O)C(=O)N[C@@H](CC(=O)O)C(=O)N[C@@H](Cc1c[nH]c2ccccc12)C(=O)O)C(C)C)[C@@H](C)CC
On to B5, for which, in the test with human GIP receptor [1], the “cAMP agonism % Emax” value is 0%, the “cAMP antagonism” value is 3.69 nM, the “cAMP antagonism % inhib” value was determined as 94% and the “cAMP antagonism pIC50” value was determined as 8.4. Also, in the test with human GIP receptor [2], the “cAMP agonism Emax” value was determined as 6, the “cAMP antagonism” value was determined as 3 nM, the “cAMP antagonism % inhib” value was 90% and the cAMP antagonism log was -8.5 log M.
